From patent US12194082B2, “Compositions and methods for treatment of homocystinuria” (THE REGENTS OF THE UNIVERSITY OF COLORADO, priority 2016, dated 2025)

Tests used:
Hcy, Cth, Cys, Met = assay: Diet study (regular vs Met-restricted diet) in I278T mice: plasma metabolites; format: in vivo
Procedure: A diet study was performed in I278T mice and analyze them. Plasma metabolites of 10 weeks old mice: +/− I278T (control), −/− I278T (negative control), and −/− treated with 20NHS PEG-[…] (OT-58) mice. Each group was further divided into subgroups: one on a regular diet (8.2 g/kg Met TD.01084 diet+zinc water) (REG) and one on a methionine-restricted diet (0.5 g/kg Met TD.110591 diet+betaine water) (MRD). Treatment was begun at W5 of age.

Hcy, Cys = assay: Continuous administration by ALZET osmotic pump in HO mice; format: in vivo; conditions: ALZET Model 2004 or 2006 pumps
Procedure: ALZET® osmotic pumps provide steady, controlled delivery of the 20NHS PEG-htCBS C15S for a prolonged period of time in fresh and naïve HO mice. The htCBS C15S PEGylated with ME-200GS was administrated using four different models of micro-osmotic ALZET® pumps, which continuously dispensed a volume of enzyme per hour instead of repeated subcutaneous injections: Model 1002 (0.25 μl/h), Model 2002 (0.5 μl/h), Model 2004 (0.25 μl/h), and Model 2006 (0.15 μl/h).
For pain relief, pre- and post-operatively, animals were also administered TYLENOL® (2 mg/ml) in water bottles ad libitum for 48 hours before and after surgery for implantation of the ALZET® pump. In addition, the animals received 5 mg/kg of carprofen subcutaneously every 24 hours, and for 48 hours postoperatively. For anesthesia during surgery, 5% isoflurane was administered by inhalation and maintained at 2-3% during surgery. While mice were anesthetized, they each received a medical grade ALZET® osmotic pump implanted under sterile conditions in a biological safety cabinet. Pumps were implanted subcutaneously in the loose skin area on the ventral side of the neck. Prior to implanting the pump, the mice were shaved and the skin area was prepped with BETADINE®. Pump implantation required a small surgical incision (5 mm) made with sterile scissors. […]

[1] = LC/MS/MS C15S activity assay of monkey plasma samples; format: in vivo, cynomolgus monkey
Source text: The bioanalytical method developed using LC/MS/MS for the determination of cystathionine M+4 as product of the CBS activity using cystathionine M+8 (^13C2D6) as an internal standard has been developed and validated for both monkey and human plasma samples and thus can be used to determine CBS activity in samples from pharmacokinetic and toxicology studies as well as clinical trials. The enzymatic assay was essentially performed as described in Example 1 with the following modifications. Deuterated D,L-homocysteine M+4 was used to initiate the reaction with unlabeled L-serine in the reaction mixture. After 30 min incubation at 37° C., the enzymatic reaction was stopped by acidification using 6N HCl and labeled product of the reaction (cystathionine M+4) was extracted using EZ:faast kit (Phenomenex, USA). Briefly, 50 μl of sample (calibration standard, QC sample or enzymatic reaction) was mixed in tube on ice and protected from light with 100 μl of internal standard solution (cystathionine M+8, 0.25 ng/μl) and 250 μl water. The mix was extracted with MCX cartridge columns (Waters). Eluted medium (6N ammonia in methanol) was evaporated to dryness at 45° C. The dry residue was dissolved in eluent medium of the EZ:faast kit, derivatized and liquid-liquid extracted following the kit manufacturer's protocol. The solid phase extraction was automatized with extraction plates to increase throughput and save time. Measurable concentrations of cystathionine M+4 were observed regardless of origin of the enzyme (htCBS C15S or C15S/ME-200GS present in plasma samples or controls or traces of endogenous monkey/human CBS in plasma samples). Much attention was paid to the calibration range since the incurred determinations were in the higher part of the concentration range qualified (5.00 to 1500 nM).
Tables 12-14 below show the comparison of C15S/ME-200GS specific activity determined by LC/MS/MS using D,L-homocysteine M+4 as a substrate and by radiometric assay using L-[…] as a substrate. The enzyme's specific activity is presented in mU/μl. The “n.d.” stands for “not determined”.

20NHS PEG-htCBS C15S: htCBS C15S PEGylated with ME-200GS PEG (20 kDa linear NHS ester-activated PEG)
plasma Cth (Hcy, Cth, Cys, Met; −/− I278T on MRD diet): 10 µM
plasma Hcy (Hcy, Cth, Cys, Met; −/− I278T on MRD diet (41 μM untreated)): 2 µM
plasma Cth (Hcy, Cth, Cys, Met; −/− I278T on REG diet): 113 µM
plasma Met (Hcy, Cth, Cys, Met; −/− I278T on REG diet): 66 µM
plasma Hcy (Hcy, Cth, Cys, Met; −/− I278T on REG diet (356 μM untreated)): 50 µM
plasma Hcy (Hcy, Cth, Cys, Met; −/− I278T on REG diet (356 μM untreated), listed as OT-58): 51 µM
plasma Cys (Hcy, Cth, Cys, Met; −/− I278T, MRD diet and/or treatment): normalize plasma levels of Cys
Cys plasma levels (Hcy, Cys): only a modest increase
plasma levels of Hcy (Hcy, Cys): substantially reduced
specific activity in plasma, LC/MS/MS assay ([1]; single IV 2 mg/kg, 0.083 h): 88.865 mU/μl
specific activity in plasma, LC/MS/MS assay ([1]; single IV 2 mg/kg, 0.167 h): 81.065 mU/μl
specific activity in plasma, LC/MS/MS assay ([1]; single IV 2 mg/kg, 0.25 h): 80.315 mU/μl
specific activity in plasma, LC/MS/MS assay ([1]; single IV 2 mg/kg, 0.5 h): 81.815 mU/μl
specific activity in plasma, LC/MS/MS assay ([1]; single IV 2 mg/kg, 1 h): 75.415 mU/μl
specific activity in plasma, LC/MS/MS assay ([1]; single IV 2 mg/kg, 2 h): 71.765 mU/μl
specific activity in plasma, LC/MS/MS assay ([1]; single IV 2 mg/kg, 4 h): 67.415 mU/μl
specific activity in plasma, LC/MS/MS assay ([1]; single IV 2 mg/kg, 8 h): 61.715 mU/μl
specific activity in plasma, LC/MS/MS assay ([1]; single IV 2 mg/kg, 24 h): 47.815 mU/μl
specific activity in plasma, LC/MS/MS assay ([1]; single IV 2 mg/kg, 72 h): 28.915 mU/μl
specific activity in plasma, LC/MS/MS assay ([1]; single IV 2 mg/kg, 120 h): 17.180 mU/μl
specific activity in plasma, LC/MS/MS assay ([1]; single IV 2 mg/kg, 192 h): 8.490 mU/μl
specific activity in plasma, LC/MS/MS assay ([1]; single SC 2 mg/kg, 2 h): 6.479 mU/μl
specific activity in plasma, LC/MS/MS assay ([1]; single SC 2 mg/kg, 4 h): 11.108 mU/μl
specific activity in plasma, LC/MS/MS assay ([1]; single SC 2 mg/kg, 8 h): 19.913 mU/μl
specific activity in plasma, LC/MS/MS assay ([1]; single SC 2 mg/kg, 48 h): 32.538 mU/μl
specific activity in plasma, LC/MS/MS assay ([1]; single SC 2 mg/kg, 72 h): 27.888 mU/μl
specific activity in plasma, LC/MS/MS assay ([1]; single SC 2 mg/kg, 96 h): 20.768 mU/μl
specific activity in plasma, LC/MS/MS assay ([1]; single SC 2 mg/kg, 120 h): 16.958 mU/μl
specific activity in plasma, LC/MS/MS assay ([1]; single SC 2 mg/kg, 192 h): 9.063 mU/μl
specific activity in plasma, LC/MS/MS assay ([1]; single SC 2 mg/kg, 240 h): 5.908 mU/μl
specific activity in plasma, LC/MS/MS assay ([1]; single SC 2 mg/kg, 336 h): 2.273 mU/μl
specific activity in plasma, LC/MS/MS assay ([1]; single SC 6 mg/kg, 1 h): 3.065 mU/μl
specific activity in plasma, LC/MS/MS assay ([1]; single SC 6 mg/kg, 2 h): 7.640 mU/μl
specific activity in plasma, LC/MS/MS assay ([1]; single SC 6 mg/kg, 4 h): 18.365 mU/μl
specific activity in plasma, LC/MS/MS assay ([1]; single SC 6 mg/kg, 8 h): 41.090 mU/μl
specific activity in plasma, LC/MS/MS assay ([1]; single SC 6 mg/kg, 24 h): 85.190 mU/μl
specific activity in plasma, LC/MS/MS assay ([1]; single SC 6 mg/kg, 48 h): 86.090 mU/μl
specific activity in plasma, LC/MS/MS assay ([1]; single SC 6 mg/kg, 72 h): 74.840 mU/μl
specific activity in plasma, LC/MS/MS assay ([1]; single SC 6 mg/kg, 96 h): 59.940 mU/μl
specific activity in plasma, LC/MS/MS assay ([1]; single SC 6 mg/kg, 120 h): 56.340 mU/μl
specific activity in plasma, LC/MS/MS assay ([1]; single SC 6 mg/kg, 192 h): 24.190 mU/μl
specific activity in plasma, LC/MS/MS assay ([1]; single SC 6 mg/kg, 240 h): 14.440 mU/μl
specific activity in plasma, LC/MS/MS assay ([1]; single SC 6 mg/kg, 336 h): 4.784 mU/μl
